Source: article PMC5715344, “Structural enzymology comparisons of multifunctional enzyme, type‐1 (MFE1): the flexibility of its dehydrogenase part” (FEBS Open Bio, 2017)

What was measured:
Test in all cases: purified protein
Format in all cases: biochemical, Rattus norvegicus
purified protein [1] = substrate: C/C=C/C(=O)SCCNC(=O)CCNC(=O)[C@H](O)C(C)(C)COP(=O)(O)OP(=O)(O)OC[C@H]1O[C@@H](n2cnc3c(N)ncnc32)[C@H](O)[C@@H]1OP(=O)(O)O; conditions: 50 mM Tris pH 9.0, 50 mM KCl, BSA, 25 °C, hydratase site
purified protein [2] = substrate: CC(=O)CC(=O)SCCNC(=O)CCNC(=O)[C@H](O)C(C)(C)COP(=O)(O)OP(=O)(O)OC[C@H]1O[C@@H](n2cnc3c(N)ncnc32)[C@H](O)[C@@H]1OP(=O)(O)O; conditions: 0.1 mM NADH, 50 mM Tris/HCl pH 7.0, 50 mM KCl, BSA, 25 °C, dehydrogenase site
purified protein [3] = substrate: C[C@H](O)CC(=O)SCCNC(=O)CCNC(=O)[C@H](O)C(C)(C)COP(=O)(O)OP(=O)(O)OC[C@H]1O[C@@H](n2cnc3c(N)ncnc32)[C@H](O)[C@@H]1OP(=O)(O)O; conditions: 1 mM NAD+, 50 mM Tris pH 9.0, 50 mM KCl, BSA, 25 °C, dehydrogenase site, substrate generated in situ from 2E-butenoyl-CoA by the enzyme's own hydratase site

B1: rat peroxisomal multifunctional enzyme, type-1 (rpMFE1) (Rattus norvegicus) (protein)
chain: MAEYLRLPHSLAMIRLCNPPVNAVSPTVIREVRNGLQKAGSDHTVKAIVICGANGNFCAGADIHGFSAFTPGLALGSLVDEIQRYQKPVLAAIQGVALGGGLELALGCHYRIANAKARVGLPEVTLGILPGARGTQLLPRVVGVPVALDLITSGKYLSADEALRLGILDAVVKSDPVEEAIKFAQKIIDKPIEPRRIFNKPVPSLPNMDSVFAEAIAKVRKQYPGVLAPETCVRSIQASVKHPYEVGIKEEEKLFMYLRASGQAKALQYAFFAEKSANKWSTPSGASWKTASAQPVSSVGVLGLGTMGRGIAISFARVGISVVAVESDPKQLDAAKKIITFTLEKEASRAHQNGQASAKPKLRFSSSTKELSTVDLVVEAVFEDMNLKKKVFAELSALCKPGAFLCTNTSALNVDDIASSTDRPQLVIGTHFFSPAHVMRLLEVIPSRYSSPTTIATVMSLSKKIGKIGVVVGNCYGFVGNRMLAPYYNQGFFLLEEGSKPEDVDGVLEEFGFKMGPFRVSDLAGLDVGWKIRKGQGLTGPSLPPGTPVRKRGNSRYSPLGDMLCEAGRFGQKTGKGWYQYDKPLGRIHKPDPWLSTFLSQYREVHHIEQRTISKEEILERCLYSLINEAFRILEEGMAARPEHIDVIYLHGYGWPRHKGGPMFYAASVGLPTVLEKLQKYYRQNPDIPQLEPSDYLRRLVAQGSPPLKEWQSLAGPHGSKL
notes: full length, 722 residues, pET15b recombinant; crystal model of molecule A starts at residue -4 (N-terminal vector/tag residues present); monomer
Purified protein [1]
  Km: 82.0 ± 18.0 µM
  kcat: 113 ± 33 s⁻¹
  kcat/Km: 1.4e+06 M⁻¹ s⁻¹
Purified protein [2]
  Km: 44.0 ± 15.0 µM
  kcat: 23 ± 2.3 s⁻¹
  kcat/Km: 500000 M⁻¹ s⁻¹
Purified protein [3]
  Km: 3.6 ± 1.0 µM
  kcat: 1.7 ± 0.1 s⁻¹
  kcat/Km: 500000 M⁻¹ s⁻¹
